Substrate in data set [1]: C=C(C)CCO[P@@](=O)(O)OP(=O)(O)O
In words: purified protein. Particulars: regular coupling; two-substrate reaction with DMAPP.

Substrate in data set [2]: CC(C)=CCOP(=O)(O)OP(=O)(O)O
In words: purified protein. Particulars: regular coupling; two-substrate reaction with IPP.

B1: neryl diphosphate synthase from Solanum lycopersicum (SlNPPS) (Solanum lycopersicum; N88H) (protein)
chain: SLNLQTEKLCYEDNDNDLDEELMPKHIALIMDGHRRWAKDKGLEVYEGHKHIIPKLKEICDISSKLGIQIITAFAFSTENWKRSKEEVDFLLQMFEEIYDEFSRSGVRVSIIGCKSDLPMTLQKCIALTEETTKGNKGLHLVIALNYGGYYDILQATKSIVNKAMNGLLDVEDINKNLFDQELESKCPNPDLLIRTGGEQRVSNFLLWQLAYTEFYFTNTLFPDFGEEDLKEAIMNFQQRHRRFGGHTY
One may read the Km as the concentration of substrate that gives half-maximal velocity. Turning to B1, in “purified protein [1]”, the Km was determined as 457 ± 91 µM and the kcat is recorded as 87±15×10^-3 s^-1. Besides, in “purified protein [2]”, the Km is 391 ± 96 µM and the kcat is recorded as 87±15×10^-3 s^-1.
